In patent US20120058102A1:

Target: ZFHD-FKBP fusion with 3 copies of the drug binding domain (3xFKBP)
Experiment: cell-based or functional assay

luciferase expression in mice (Xenogen imaging) after rapamycin 2 mg/kg IP, against pre-induction; Group 2, transcription factor unit under the CMV promoter: > 2 logs
luciferase expression in mice (Xenogen imaging) after rapamycin 2 mg/kg IP, against pre-induction; Group 4, transcription factor unit under the TBG promoter: > 100 fold
Substance: FRB-TA fusion (FRB fragment of FRAP/mTOR fused to a portion of human NF-KB p65 as transcription activator)
